According to patent publication US7592188B2, “Live cell biosensors” (The Scripps Research Institute, priority 2004, dated 2009):
“Also recorded” adds a separate entry of the source.

What was measured:
[1] = system: Rho kinase; experiment: Extension and retraction of protrusions with Rho kinase inhibitor; format: cell-based
Text: These possibilities were distinguished by blocking retraction using an inhibitor of Rho kinase (Y27632).

[2] = system: Cdc42; experiment: MeroCBD biosensor imaging of Cdc42 activation in living cells; format: cell-based; details: in words
Text: The I—SO labeled WASP fragment provided a straightforward means to assay Cdc42 activation in cell lysates. By simply adding the biosensor to the lysate, the fluorescence readout of Cdc42 activation. This method was used to determine the kinetics of Cdc42 activation in neutrophils after stimulation with chemoattractant fMetLeuPhe (FMLP) peptide. Results obtained paralleled those previously reported using well-established methods (Benard et al., J. Biol. Chem. 275: 36457 (2000). Fluorescence of the biosensor was also used to monitor the real-time kinetics of Cdc42 GDP/GTP exchange in vitro. Because the labeled WASP fragment responded to activated Cdc42 through fluorescence intensity modulation, a ratiometric imaging approach was used to correct for effects of varying cell thickness, uneven illumination, and other factors that could affect imaging of dye intensity (Bright et al., Methods Cell Biol. 14: 157 (1989). The biosensor was fused to enhanced green fluorescent protein (EGFP) to provide a fluorescence signal insensitive to Cdc42 binding, but with the same subcellular distribution as the sensitive dye. The dye image could be divided by the EGFP image to normalize changes in dye intensity not originating from Cdc42 binding. […] Fluorescence response and Cdc42 binding of the biosensor remained intact after these modifications. […]

[3] = molecular target: T1, Rac (Homo sapiens, UniProt P63000); experiment: Specificity of I-SO WASP biosensor for activated GTPases; format: binding; details: concentrations well above physiological levels
T1 construct: 6His; made in house; host or cells: E. coli BL21DE3, only by the words 'analogous procedures'
Experimental: (§1) Further studies were conducted using the I—SO dye 4b attached at position F271 C of the WASP fragment. This biosensor had properties similar to the S—SO biosensor described above. […] To determine the specificity of the biosensor, interactions with different activated GTPases were examined. The biosensor distinguished proteins closely related to Cdc42 from other members of the Rho family.

[4] = molecular target: T2, RhoA (Homo sapiens, UniProt P61586); experiment: as above; format: binding; details: concentrations well above physiological levels
T2 construct: 6His; made in house; host or cells: E. coli BL21DE3, only by the words 'analogous procedures'
T2 sequence (P61586 whole entry, species assumed): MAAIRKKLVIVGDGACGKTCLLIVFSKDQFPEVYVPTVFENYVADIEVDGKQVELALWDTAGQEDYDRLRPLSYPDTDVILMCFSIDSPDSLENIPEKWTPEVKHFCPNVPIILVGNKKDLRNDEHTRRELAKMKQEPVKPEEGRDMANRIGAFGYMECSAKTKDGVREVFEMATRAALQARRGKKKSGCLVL
Experimental: as §1

[5] = molecular target: TC10 (Homo sapiens, UniProt P17081); experiment: as above; format: binding
TC10, sequence (P17081 whole entry, species assumed): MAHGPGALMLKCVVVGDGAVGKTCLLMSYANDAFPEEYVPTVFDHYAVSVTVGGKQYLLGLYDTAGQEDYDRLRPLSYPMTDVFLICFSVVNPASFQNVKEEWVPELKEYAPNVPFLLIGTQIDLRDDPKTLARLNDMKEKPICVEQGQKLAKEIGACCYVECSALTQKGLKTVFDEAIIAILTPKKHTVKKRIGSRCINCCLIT
Experimental: as §1

## C[C@@H](N)[C@H]1CC[C@H](C(=O)Nc2ccncc2)CC1 [Y27632]
[1]
  effect on protrusions: caused protrusions to continue expanding even after Cdc42 activity decreased

B1: MeroCBD (conjugate)
chain: DIQNPDITSSRYRGLPAPGPSPADKKRSGKKKISKADIGAPSGFKHVSHVGWDPQNGFDVNNLDPDLRSLCSRAGISEAQLTDAETSKLIYDFIEDQGGLEAVRQEMRRQEPLP
modifications: left off: large carriers
[2]
  Cdc42 activation reported by biosensor in living cells: showed localized Cdc42 activation even in unstimulated cells; also recorded: consistently showed activation in the trans-Golgi apparatus of endothelial cells

B2: I—SO-WASP biosensor: I—SO dye attached at position F271C of the WASP fragment (conjugate)
chain: DIQNPDITSSRYRGLPAPGPSPADKKRSGKKKISKADIGAPSGFKHVSHVGWDPQNGFDVNNLDPDLRSLCSRAGISEAQLTDAETSKLIYDFIEDQGGLEAVRQEMRRQEPLPPPPPPS
modifications: left off: small tags and cut ends
notes: I—SO dye attached at position F271C of the WASP fragment
[3]
  interaction with Rac: did not interact
[4]
  interaction with RhoA: did not interact
[5]
  response to TC10: responded
